{"source": "patent US20240270846A1", "about": "(published 2024)", "binders": {"B1": {"name": "GLS3000 L27bP (Kabat) L chain altered form, one-arm antibody with CE115HA000 (antibody, human IgG1, kappa, L234A L235A, N297A, name in Kabat numbering)", "heavy": "QVQLVESGGGVVQPGRSLRLSCAASGFTFSNAWMHWVRQAPGKGLEWVAQIKAKSNNYATYYAESVKGRFTISRDDSKNSLYLQMNSLKTEDTAVYYCRYVHYGAYYGVDAWGQGTTVTVSSASTKGPSVFPLAPSSKSTSGGTAALGCLVKDYFPEPVTVSWNSGALTSGVHTFPAVLQSSGLYSLSSVVTVPSSSLGTQTYICNVNHKPSNTKVDKKVEPKSCDKTHTCPPCPAPEAAGGPSVFLFPPKPKDTLMISRTPEVTCVVVDVSHEDPEVKFNWYVDGVEVHNAKTKPREEQYASTYRVVSVLTVLHQDWLNGKEYKCKVSNKALPAPIEKTISKAKGQPREPQVYTLPPSRCELTKNQVSLSCAVKGFYPSDIAVEWESNGQPENNYKTTPPVLDSDGSFFLVSKLTVDKSRWQQGNVFSCSVMHEALHNHYTQKSLSLSPDYKDDDDK", "chain": "EPKSSDKTHTCPPCPAPELLGGPSVFLFPPKPKDTLMISRTPEVTCVVVDVSHEDPEVKFNWYVDGVEVHNAKTKPREEQYNSTYRVVSVLTVLHQDWLNGKEYKCKVSNKALPAPIEKTISKAKGQPREPQVCTLPPSRDELTKNQVSLWCLVKGFYPSDIAVEWESNGQPENNYKTTPPVLDSDGSFFLYSKLTVDKSRWQQGNVFSCSVMHEALHNRYTQKSLSLSP", "light": "DIVMTQSPLSLPVTPGEPASISCRSSQSPVHSNRNTYLHWYQQKPGQAPRLLIYKVSNRFSGVPDRFSGSGSGTDFTLKISRVEAEDVGVYYCGQGTQVPYTFGQGTKLEIKRTVAAPSVFIFPPSDEQLKSGTASVVCLLNNFYPREAKVQWKVDNALQSGNSQESVTEQDSKDSTYSLSSTLTLSKADYEKHKVYACEVTHQGLSSPVTKSFNRGEC", "notes": "one-arm antibody"}, "B2": {"name": "GLS3000 N28D (Kabat) L chain altered form, one-arm antibody with CE115HA000 (antibody, human IgG1, kappa, L234A L235A, N297A, name in Kabat numbering)", "heavy": "B1 heavy", "chain": "B1 chain", "light": "B1 light with P29L, N33D", "notes": "one-arm antibody"}, "B3": {"name": "GLS3000 N28A (Kabat) L chain altered form, one-arm antibody with CE115HA000 (antibody, human IgG1, kappa, L234A L235A, N297A, name in Kabat numbering)", "heavy": "B1 heavy", "chain": "B1 chain", "light": "B1 light with P29L, N33A", "notes": "one-arm antibody"}, "B4": {"name": "GLS3000 L27bS (Kabat) L chain altered form, one-arm antibody with CE115HA000 (antibody, human IgG1, kappa, L234A L235A, N297A, name in Kabat numbering)", "heavy": "B1 heavy", "chain": "B1 chain", "light": "B1 light with P29S", "notes": "one-arm antibody"}, "B5": {"name": "GLS3000 N28G (Kabat) L chain altered form, one-arm antibody with CE115HA000 (antibody, human IgG1, kappa, L234A L235A, N297A, name in Kabat numbering)", "heavy": "B1 heavy", "chain": "B1 chain", "light": "B1 light with P29L, N33G", "notes": "one-arm antibody"}, "B6": {"name": "GLS3000 L27bW (Kabat) L chain altered form, one-arm antibody with CE115HA000 (antibody, human IgG1, kappa, L234A L235A, N297A, name in Kabat numbering)", "heavy": "B1 heavy", "chain": "B1 chain", "light": "B1 light with P29W", "notes": "one-arm antibody"}, "B7": {"name": "GLS3000 N28F (Kabat) L chain altered form, one-arm antibody with CE115HA000 (antibody, human IgG1, kappa, L234A L235A, N297A, name in Kabat numbering)", "heavy": "B1 heavy", "chain": "B1 chain", "light": "B1 light with P29L, N33F", "notes": "one-arm antibody"}, "B8": {"name": "GLS3000 L27bV (Kabat) L chain altered form, one-arm antibody with CE115HA000 (antibody, human IgG1, kappa, L234A L235A, N297A, name in Kabat numbering)", "heavy": "B1 heavy", "chain": "B1 chain", "light": "B1 light with P29V", "notes": "one-arm antibody"}, "B9": {"name": "GLS3000 L33A (Kabat) L chain altered form, one-arm antibody with CE115HA000 (antibody, human IgG1, kappa, L234A L235A, N297A, name in Kabat numbering)", "heavy": "B1 heavy", "chain": "B1 chain", "light": "B1 light with P29L, L38A", "notes": "one-arm antibody"}, "B10": {"name": "GLS3000 L27bY (Kabat) L chain altered form, one-arm antibody with CE115HA000 (antibody, human IgG1, kappa, L234A L235A, N297A, name in Kabat numbering)", "heavy": "B1 heavy", "chain": "B1 chain", "light": "B1 light with P29Y", "notes": "one-arm antibody"}, "B11": {"name": "GLS3000 N28E (Kabat) L chain altered form, one-arm antibody with CE115HA000 (antibody, human IgG1, kappa, L234A L235A, N297A, name in Kabat numbering)", "heavy": "B1 heavy", "chain": "B1 chain", "light": "B1 light with P29L, N33E", "notes": "one-arm antibody"}}, "note": "Changes are numbered by the printed parent chain. Names may count otherwise.", "data": [{"target": "T1, CD3 epsilon homodimer protein (UniProt P07766 23-126)", "T1 construct": "construct not described; homodimer as printed; also called CD3 (CD3 epsilon)", "T1 sequence (P07766 23-126)": "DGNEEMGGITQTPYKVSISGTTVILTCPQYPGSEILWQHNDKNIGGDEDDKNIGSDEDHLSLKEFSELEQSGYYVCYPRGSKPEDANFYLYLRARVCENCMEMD", "experiment": "SPR Biacore T200, CD3 epsilon homodimer immobilized; vs unaltered GLS3000;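 also: antibody variants flowed as analyte over CD3 epsilon homodimer amine-coupled to a CM4 chip, at 25 °C in HBS-EP+ running buffer, fitted with Biacore T200 Evaluation Software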", "values": [{"binder": "B1", "KD ratio to GLS3000 (Affinity up)": 0.96}, {"binder": "B2", "KD ratio to GLS3000 (Affinity up)": 4460}, {"binder": "B3", "KD ratio to GLS3000 (Affinity up)": 4.18}, {"binder": "B4", "KD ratio to GLS3000 (Affinity up)": 0.9}, {"binder": "B5", "KD ratio to GLS3000 (Affinity up)": 2.41}, {"binder": "B6", "KD ratio to GLS3000 (Affinity up)": 23.6}, {"binder": "B7", "KD ratio to GLS3000 (Affinity up)": 2.59}, {"binder": "B8", "KD ratio to GLS3000 (Affinity up)": 1.11}, {"binder": "B9", "KD ratio to GLS3000 (Affinity up)": 0.82}, {"binder": "B10", "KD ratio to GLS3000 (Affinity up)": 22.2}, {"binder": "B11", "KD ratio to GLS3000 (Affinity up)": 5.47}]}]}
